US20180327493A1

Target: human CD84 on cells (primary CLL cells, Ramos cells, Daudi cells) (human), Q9UIB8
Assay: cell-based or functional assay

Sequence of human CD84 on cells (primary CLL cells, Ramos cells, Daudi cells) (human), Q9UIB8 (Q9UIB8 22-345): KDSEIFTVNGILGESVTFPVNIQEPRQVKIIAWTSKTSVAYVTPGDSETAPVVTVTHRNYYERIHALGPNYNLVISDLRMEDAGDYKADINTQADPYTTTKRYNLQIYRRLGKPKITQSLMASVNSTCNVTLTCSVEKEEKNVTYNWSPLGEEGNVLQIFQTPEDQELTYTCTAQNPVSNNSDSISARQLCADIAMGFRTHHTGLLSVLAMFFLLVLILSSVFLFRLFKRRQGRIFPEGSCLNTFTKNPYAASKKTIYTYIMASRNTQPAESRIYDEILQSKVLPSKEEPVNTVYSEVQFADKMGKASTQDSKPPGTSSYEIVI

% apoptosis, Ramos cells (Magic Red, FACS) [% apoptosis] | % apoptosis, purified CLL cells (Magic Red, FACS) [% apoptosis] | annexin positive total population of CLL cells (Annexin 7AAD staining) [%] | Binder
45 | 73 | – | anti-CD84 antibody from the B1 hybridoma (antibody) heavy: EVKLVESGGGLVQPGGSRKLSCAASGFTFSSFGMHWVRQAPEKGLEWVAYISSGSSTIYYADTVKGRFTISRDNPKNTLFLQMTSLRSEDTAMYYCARWGWTGTGLDYWGQGTTLTVSSFEAKTTPPSVYPLAPGSAAQTNSMVTLGCLVKGYFPEPVTVTWNSGSLSSGVHTFPAVLQSDLYTLSSSVTVPSSTWPSETVTCNVAHPASSTKVDKKIVPRDCGCKPCICTVPEVSSVFIFPPKPKDVLTITLTPKVTCVVVDISKDDPEVQFSWFVDDVEVHTAQTQPREEQFNSTFRSVSELPIMHQDWLNGKEFKCRVNSAAFPAPIEKTISKTKGRPKAPQVYTIPPPKEQMAKDKVSLTCMITDFFPEDITVEWQWNGQPAENYKNTQPIMDTDGSYFVYSKLNVQKSNWEAGNTFTCSVLHEGLHNHHTEKSLSHSPGK light: DIVLTQSPALMAASPGEKVTITCSVSSSISSSNLHWYQQKSETSPKPWIYGTSNLASGVPVRFSGSGSGTSYSLTISSMEAEDAATYYCQQWSSYPFTFGSGTKLEIKRRTRADAAPTVSIFPPSSEQLTSGGASVVCFLNNFYPKDINVKWKIDGSERQNGVLNSWTDQDSKDSTYSMSSTLTLTKDEYERHNSYTCEATHKTSTSPIVKSFNRNEC
39 | 75 | 55.8 | anti-CD84 antibody from the B4 hybridoma (antibody) heavy: EVKLVESGAELARPGASVKLSCKASGYTFTSYWMQWVKQRPGQGLEWIGAIYPGDGDTRYTQKFKGKATLTADKSSSTAYMQLSSLASEDSAVYYCARLLRTYWYFDVWGAGTTVTVSSFEAKTTAPSVYPLAPVCGDTTGSSVTLGCLVKGYFPEPVTLTWNSGSLSSGVHTFPAVLQSDLYTLSSSVTVTSSTWPSQSITCNVAHPASSTKVDKKIEPRGPTIKPCPPCKCPAPNLLGGPSVFIFPPKIKDVLMISLSPIVTCVVVDVSEDDPDVQISWFVNNVEVHTAQTQTHREDYNSTLRVVSALPIQHQDWMSGKEFKCKVNNKDLPAPIERTISKPKGSVRAPQVYVLPPPEEEMTKKQVTLTCMVTDFMPEDIYVEWTNNGKTELNYKNTEPVLDSDGSYFMYSKLRVEKKNWVERNSYSCSVVHEGLHNHHTTKSFSRTPGK light: DIVLTQSHKFMSTSVGDRVSITCKASQDVGTAVAWYQQKPGQSPKLLIYWASTRHTGVPDRFTGSGSGTDFTLTISNVQSEDLADYFCQQYSSYPYTFGGGTKLELKRRTRADAAPTVSIFPPSSEQLTSGGASVVCFLNNFYPKDINVKWKIDGSERQNGVLNSWTDQDSKDSTYSMSSTLTLTKDEYERHNSYTCEATHKTSTSPIVKSFNRNEC
